Reference: patent US20100056439A1 (DOMANTIS, published 2010)
Substitutions are numbered along the chain they refer to.

B1: DOM16-39 (other)
VL: DIQMTQSPSSLSASVGDRVTITCRASQWIGILLDWYQQKPGEAPKLLIYYASFLQSGVPSRFSGSGSGTDFTLTISSLQPEDFATYYCQQANPAPLTFGQGTKVEIKR
B2: DOM16-39-87 (other)
VL: B1 VL with L33V, T97R
B3: DOM16-39-100 (other)
VL: B1 VL with L33V, S67F, Q79H
B4: DOM16-39-107 (other)
VL: B1 VL with L33V
B5: DOM16-39-109 (other)
VL: B1 VL with S9T, I31N, S65G, S67F
B6: DOM16-39-115 (other)
VL: B1 VL with S67Y
B7: IgG-like format No. 28 (heavy chain V region DOM15-26-501 VH; light chain V region DOM16-39-500 VK) (bispecific antibody, V domains shown)
VH: EVQLLESGGGLVQPGGSLRLSCAASGFTFKAYPIMWVRQAPGKGLEWVSEISPSGSYTYYADSVKGRFTISRDNSKNTLYLQMNSLRAEDTAVYYCAKDPRKFDYWGQGTLVTVSS
VL: B1 VL with L33V, E42K, S67F, Q79H
notes: IgG-like format; also called IgG 28; not shown: human IgG1 heavy chain constant region; human kappa light chain constant region (CK)
B8: IgG-like format No. 30 (heavy chain V region DOM15-26-501 VH; light chain V region DOM16-39-502 VK) (bispecific antibody, V domains shown)
VH: B7 VH
VL: B1 VL with S9T, I31N, E42K, S65G, S67F
notes: IgG-like format; also called IgG 30; not shown: human IgG1 heavy chain constant region; human kappa light chain constant region (CK)

How the values were obtained:
[1] = target: T1, EGFR expressed on A431 cells (human, UniProt P00533 25-1210); assay: cell-based or functional assay
[2] = target: T1, EGFR expressed on A431 cells; assay: EGFR binding assay: inhibition of biotinylated EGF binding to A431 cells; lowest value obtained
Method: All reagents were prepared in PBS/1% BSA. The plate was incubated for 30 minutes at room temperature.

[3] = target: T1, EGFR expressed on A431 cells; assay: EGFR cell receptor binding assay: inhibition of biotinylated EGF binding to A431 cells; IgG-like format
VEGF-165 = target: T2, VEGF-165 (human, UniProt P15692-4 27-191); assay: VEGF receptor binding assay (RBA), IgG-like format; receptor (VEGFR1 or VEGFR2) not given
T2 construct: The assay text gives no species; also called vascular endothelial growth factor
T2 sequence (P15692 other isoform, or with tags, fused parts or gaps limits assumed): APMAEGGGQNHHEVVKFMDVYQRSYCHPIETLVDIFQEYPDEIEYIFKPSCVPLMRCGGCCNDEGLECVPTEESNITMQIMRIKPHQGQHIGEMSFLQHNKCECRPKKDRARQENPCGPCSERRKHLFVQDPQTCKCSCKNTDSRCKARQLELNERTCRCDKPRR

| Binder | Kinase Assay IC50 (nM), average [1] [nM] | IC50 [2] [nM] | Kinase Assay IC50 (nM), highest value [1] [nM] | Kinase Assay IC50 (nM), lowest value [1] [nM] | EC50 [3] [nM] | IC50 (VEGF-165) [nM] |
| --- | --- | --- | --- | --- | --- | --- |
| B1 | 56.1 | – | – | – | – | – |
| B2 | 54.9 | 4.47 to 10.4 | – | – | – | – |
| B3 | 12.7 | 1.01 to 2.76 | 17.6 | 9.14 | – | – |
| B4 | 20.5 | 1.47 to 4.21 | – | – | – | – |
| B5 | 8.69 | 0.746 to 1.47 | – | – | – | – |
| B6 | 42.4 | 1.08 to 6.89 | – | – | – | – |
| B7 | – | – | – | – | 43 | 0.8 |
| B8 | – | – | – | – | 17 | 0.2 |
